Results from patent US12384850 (SYSTIMMUNE, dated 2025).

Assays:
human 41BB = biological target: T1, human 41BB (human, UniProt Q07011 24-255); test: FACS on human 41BB transfected CHO cells
T1 construct: whole, on cells; also called 41BB expressing CHO cells; human 41BB transfected CHO cells
Description: (§1) Example 2: FACS Analysis of Tetra-Specific GNC Antibody Binding to Human 41BB Transfected CHO Cells The tetra-specific GNC antibodies listed in TABLEs 3 and 4 were tested for binding to Chinese hamster ovary cells (CHO) cells stably expressing a full-length human ROR1. Antibodies were prepared at 2× final concentration and titrated 1:5 across 3 wells of a 96 well plate in 50 ul of PBS/2% FBS and then 5,000 ROR1-CHO cells in 50 ul PBS/2% FBS were added. This mixture was incubated for 30 minutes on ice, washed once with 200 ul PBS/2% FBS, and then the secondary antibody PE Goat anti-Human IgG Fc at 1:1000 dilution of stock was added, and this mixture was incubated for 30 minutes on ice. Cells were washed 2×200 ul PBS/2% FBS, resuspended in 50 ul PBS/2% FBS and analyzed on a BD LSRFORTESSA and the binding profile is shown in FIG. 5. All of the tetra-specific GNC antibodies except for the control SI-27E12 contain a 41BB binding domain, 460C3, 420H5, or 466F6 and bound to 41BB expressing CHO cells with varying intensity.

human PD-L1 = biological target: T2, human PD-L1 (human, UniProt Q9NZQ7 19-290); test: FACS on human PD-L1 transfected CHO cells
T2 construct: whole, on cells; also called PDL1 expressing CHO cells; human PD-L1 transfected CHO cells
T2 sequence (Q9NZQ7 19-290): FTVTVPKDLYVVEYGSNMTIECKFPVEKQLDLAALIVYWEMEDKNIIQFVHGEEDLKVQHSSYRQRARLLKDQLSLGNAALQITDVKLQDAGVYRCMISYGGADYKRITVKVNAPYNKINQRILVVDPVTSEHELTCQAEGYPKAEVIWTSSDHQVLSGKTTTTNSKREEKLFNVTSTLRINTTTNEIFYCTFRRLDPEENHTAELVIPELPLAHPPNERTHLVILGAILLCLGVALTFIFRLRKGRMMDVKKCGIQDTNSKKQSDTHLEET
Description: as §1, with “3:” for “2:”, “PDL1” for “41BB”, “[…]” for “a full-length”, “6.” for “5. All of the tetra-specific GNC antibodies except for the control SI-27E12 contain a 41BB binding domain, 460C3, 420H5, or 466F6 and bound to 41BB expressing CHO cells with varying intensity.”

full-length human ROR1 = biological target: T3, full-length human ROR1 (human, UniProt Q01973 30-937); test: FACS on CHO cells stably expressing full-length human ROR1
T3 construct: whole, on cells; also called human ROR1 transfected CHO cells; ROR1-CHO cells
T3 sequence (Q01973 30-937): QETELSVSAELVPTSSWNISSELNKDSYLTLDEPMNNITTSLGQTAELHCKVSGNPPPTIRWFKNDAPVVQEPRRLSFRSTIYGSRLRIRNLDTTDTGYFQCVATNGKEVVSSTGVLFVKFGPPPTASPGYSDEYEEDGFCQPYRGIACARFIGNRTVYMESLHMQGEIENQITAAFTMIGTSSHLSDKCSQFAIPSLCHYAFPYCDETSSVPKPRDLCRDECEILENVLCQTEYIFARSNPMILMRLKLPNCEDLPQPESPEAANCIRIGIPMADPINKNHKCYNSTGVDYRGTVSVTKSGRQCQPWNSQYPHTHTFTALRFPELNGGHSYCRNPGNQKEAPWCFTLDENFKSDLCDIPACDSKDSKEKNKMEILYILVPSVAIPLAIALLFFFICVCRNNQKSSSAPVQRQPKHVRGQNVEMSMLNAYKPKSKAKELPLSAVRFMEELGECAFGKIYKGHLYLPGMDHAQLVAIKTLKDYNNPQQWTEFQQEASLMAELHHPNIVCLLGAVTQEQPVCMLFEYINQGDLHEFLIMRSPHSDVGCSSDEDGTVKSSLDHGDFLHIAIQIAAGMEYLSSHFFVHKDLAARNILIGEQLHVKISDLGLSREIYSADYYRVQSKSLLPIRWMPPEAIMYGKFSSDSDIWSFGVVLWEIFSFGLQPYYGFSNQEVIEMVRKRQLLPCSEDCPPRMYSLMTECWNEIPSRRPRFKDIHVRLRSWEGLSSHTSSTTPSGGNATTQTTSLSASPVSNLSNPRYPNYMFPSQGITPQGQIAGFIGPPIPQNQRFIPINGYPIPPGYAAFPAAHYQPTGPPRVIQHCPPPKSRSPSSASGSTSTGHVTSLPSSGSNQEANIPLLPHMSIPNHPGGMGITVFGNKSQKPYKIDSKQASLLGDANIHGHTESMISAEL
Description: as §1, with “Example 1:” for “Example 2:”, “Tetra-Specific Specific” for “Tetra-Specific GNC”, “Human ROR1” for “Human 41BB”, “FIG. 4.” for “FIG. 5. All of the tetra-specific GNC antibodies except for the control SI-27E12 contain a 41BB binding domain, 460C3, 420H5, or 466F6 and bound to 41BB expressing CHO cells with varying intensity.”

T1 sequence (Q07011 24-255): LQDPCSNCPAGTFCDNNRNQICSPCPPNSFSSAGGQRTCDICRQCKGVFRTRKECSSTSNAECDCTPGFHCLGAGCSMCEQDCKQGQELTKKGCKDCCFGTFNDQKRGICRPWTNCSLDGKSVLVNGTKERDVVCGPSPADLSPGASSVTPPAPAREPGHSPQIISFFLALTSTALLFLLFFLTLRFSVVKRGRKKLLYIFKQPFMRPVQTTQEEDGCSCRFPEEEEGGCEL

| Binder | binding result (human 41BB) | binding result (human PD-L1) | binding result (full-length human ROR1) |
| --- | --- | --- | --- |
| SI-27E15 (bispecific antibody, not shown: small tags and cut ends, also called control SI-27E15) heavy (part 1 of 7): DIQMTQSPSTLSASVGDRVTITCQSSQSVYSNWFSWYQQKPGKAPKLLIYSASTLASGVPSRFSGSGSGTEFTLTISSLQPDDFATYYCAGGYNTVIDTFAFGGGTKVEIK heavy (part 2 of 7): EVQLLESGGGLVQPGGSLRLSCAASGIDFSRRYYMCWVRQAPGKGLEWIACIYTGSRDTPHYASSAKGRFTISRDNSKNTLYLQMNSLRAEDTAVYYCAREGSLWGQGTLVTVSS heavy (part 3 of 7): not shown heavy (part 4 of 7): QSLVESGGGLVQPGGSLRLSCTASGFSLSRYYMTWVRQAPGKGLEWIGTIYTSGSTWYASWTKGRFTISKDNTKNTVDLQMNSLRAEDTAVYYCARSYYGGDKTGLGIWGQGTLVTVSS heavy (part 5 of 7): DIQMTQSPSTLSASVGDRVTITCQASQSIDSWLSWYQQKPGKAPKLLIYQASTLASGVPSRFSGSGSGTEFTLTISSLQPDDFATYYCQSAYGVSGTSSYLYTFGGGTKVEIK heavy (part 6 of 7): EVQLVESGGGLVQPGGSLRLSCAASGIDLSSNAMSWVRQAPGKGLEWIGVITGRDITYYASWAKGRFTISRDNSKNTLYLQMNSLRAEDTAVYYCARDGGSSAINSKNIWGQGTLVTVSS heavy (part 7 of 7): DIQMTQSPSTLSASVGDRVTITCQASESISSWLAWYQQKPGKAPKLLIYEASKLASGVPSRFSGSGSGTEFTLTISSLQPDDFATYYCQGYFYFISRTYVNAFGGGTKVEIK light: DVVMTQTPLSLPVSLGDQASISCRSSQSLVHSNGNTYLRWYLQKPGQSPKVLIYKVSNRFSGVPDRFSGSGSGTDFTLKISRVEAEDLGVYFCSQSTHVPWTFGGGTKLEIKRTVAAPSVFIFPPSDEQLKSGTASVVCLLNNFYPREAKVQWKVDNALQSGNSQESVTEQDSKDSTYSLSSTLTLSKADYEKHKVYACEVTHQGLSSPVTKSFNRGEC | binds | – | – |
| SI-35E18 (460C3-L1H1-scFv × PL230C6-Fab × 323H7-H4L1-scFv × 284A10-H1L1-scFv) (bispecific antibody, human IgG1, kappa, Tetra-specific GNC antibody (41BB x PD-L1 x ROR1 x CD3), IgG1 null2 Fc) heavy: not shown light: AYDMTQSPSSVSASVGDRVTIKCQASEDIYSFLAWYQQKPGKAPKLLIHSASSLASGVPSRFSGSGSGTDFTLTISSLQPEDFATYYCQQGYGKNNVDNAFGGGTKVEIKRTVAAPSVFIFPPSDEQLKSGTASVVCLLNNFYPREAKVQWKVDNALQSGNSQESVTEQDSKDSTYSLSSTLTLSKADYEKHKVYACEVTHQGLSSPVTKSFNRGEC | binds | binds | binds |
| SI-35E2 (bispecific antibody, not shown: small tags and cut ends, the listing has only VHv3/VLv2) heavy (part 1 of 7): DIQMTQSPSTLSASVGDRVTITCQSSQSVYSNWFSWYQQKPGKAPKLLIYSASTLASGVPSRFSGSGSGTEFTLTISSLQPDDFATYYCAGGYNTVIDTFAFGGGTKVEIK heavy (part 2 of 7): EVQLLESGGGLVQPGGSLRLSCAASGIDFSRRYYMCWVRQAPGKGLEWIACIYTGSRDTPHYASSAKGRFTISRDNSKNTLYLQMNSLRAEDTAVYYCAREGSLWGQGTLVTVSS heavy (part 3 of 7): not shown heavy (part 4 of 7): QSLVESGGGLVQPGGSLRLSCTASGFSLSRYYMTWVRQAPGKGLEWIGTIYTSGSTWYASWTKGRFTISKDNTKNTVDLQMNSLRAEDTAVYYCARSYYGGDKTGLGIWGQGTLVTVSS heavy (part 5 of 7): DIQMTQSPSTLSASVGDRVTITCQASQSIDSWLSWYQQKPGKAPKLLIYQASTLASGVPSRFSGSGSGTEFTLTISSLQPDDFATYYCQSAYGVSGTSSYLYTFGGGTKVEIK heavy (part 6 of 7): EVKLDETGGGLVQPGRPMKLSCVASGFTFSDYWMNWVRQSPEKGLEWVAQIRNKPYNYETYYSDSVKGRFTISRDDSKSSVYLQMNNLRVEDMGIYYCTGSYYGMDYWGQGTSVTVSS heavy (part 7 of 7): DVVMTQTPLSLPVSLGDQASISCRSSQSLVHSNGNTYLRWYLQKPGQSPKVLIYKVSNRFSGVPDRFSGSGSGTDFTLKISRVEAEDLGVYFCSQSTHVPWTFGGGTKLEIK light: AYDMTQSPSSVSASVGDRVTIKCQASEDIYSFLAWYQQKPGKAPKLLIHSASSLASGVPSRFSGSGSGTDFTLTISSLQPEDFATYYCQQGYGKNNVDNAFGGGTKVEIKRTVAAPSVFIFPPSDEQLKSGTASVVCLLNNFYPREAKVQWKVDNALQSGNSQESVTEQDSKDSTYSLSSTLTLSKADYEKHKVYACEVTHQGLSSPVTKSFNRGEC | binds | binds | – |

More lines, now with the values ahead:

| binding result (human 41BB) | binding result (human PD-L1) | binding result (full-length human ROR1) | Binder |
| --- | --- | --- | --- |
| – | binds | – | SI-27E12 (bispecific antibody, not shown: small tags and cut ends, the listing has only VHv3/VLv2; also called control SI-27E12) heavy (part 1 of 7): DVVMTQTPLSLPVSLGDQASISCRSSQSLVHSNGNTYLRWYLQKPGQSPKVLIYKVSNRFSGVPDRFSGSGSGTDFTLKISRVEAEDLGVYFCSQSTHVPWTFGGGTKLEIK heavy (part 2 of 7): EVKLDETGGGLVQPGRPMKLSCVASGFTFSDYWMNWVRQSPEKGLEWVAQIRNKPYNYETYYSDSVKGRFTISRDDSKSSVYLQMNNLRVEDMGIYYCTGSYYGMDYWGQGTSVTVSS heavy (part 3 of 7): not shown heavy (part 4 of 7): QSLVESGGGLVQPGGSLRLSCTASGFSLSRYYMTWVRQAPGKGLEWIGTIYTSGSTWYASWTKGRFTISKDNTKNTVDLQMNSLRAEDTAVYYCARSYYGGDKTGLGIWGQGTLVTVSS heavy (part 5 of 7): DIQMTQSPSTLSASVGDRVTITCQASQSIDSWLSWYQQKPGKAPKLLIYQASTLASGVPSRFSGSGSGTEFTLTISSLQPDDFATYYCQSAYGVSGTSSYLYTFGGGTKVEIK heavy (part 6 of 7): EVQLVESGGGLVQPGGSLRLSCAASGIDLSSNAMSWVRQAPGKGLEWIGVITGRDITYYASWAKGRFTISRDNSKNTLYLQMNSLRAEDTAVYYCARDGGSSAINSKNIWGQGTLVTVSS heavy (part 7 of 7): DIQMTQSPSTLSASVGDRVTITCQASESISSWLAWYQQKPGKAPKLLIYEASKLASGVPSRFSGSGSGTEFTLTISSLQPDDFATYYCQGYFYFISRTYVNAFGGGTKVEIK light: AYDMTQSPSSVSASVGDRVTIKCQASEDIYSFLAWYQQKPGKAPKLLIHSASSLASGVPSRFSGSGSGTDFTLTISSLQPEDFATYYCQQGYGKNNVDNAFGGGTKVEIKRTVAAPSVFIFPPSDEQLKSGTASVVCLLNNFYPREAKVQWKVDNALQSGNSQESVTEQDSKDSTYSLSSTLTLSKADYEKHKVYACEVTHQGLSSPVTKSFNRGEC |
| binds | binds | – | SI-27E13 (bispecific antibody, not shown: small tags and cut ends, the listing has only VHv3/VLv2) heavy (part 1 of 7): DIQMTQSPSTLSASVGDRVTITCQSSQSVYSNWFSWYQQKPGKAPKLLIYSASTLASGVPSRFSGSGSGTEFTLTISSLQPDDFATYYCAGGYNTVIDTFAFGGGTKVEIK heavy (part 2 of 7): EVQLLESGGGLVQPGGSLRLSCAASGIDFSRRYYMCWVRQAPGKGLEWIACIYTGSRDTPHYASSAKGRFTISRDNSKNTLYLQMNSLRAEDTAVYYCAREGSLWGQGTLVTVSS heavy (part 3 of 7): not shown heavy (part 4 of 7): EVKLDETGGGLVQPGRPMKLSCVASGFTFSDYWMNWVRQSPEKGLEWVAQIRNKPYNYETYYSDSVKGRFTISRDDSKSSVYLQMNNLRVEDMGIYYCTGSYYGMDYWGQGTSVTVSS heavy (part 5 of 7): DVVMTQTPLSLPVSLGDQASISCRSSQSLVHSNGNTYLRWYLQKPGQSPKVLIYKVSNRFSGVPDRFSGSGSGTDFTLKISRVEAEDLGVYFCSQSTHVPWTFGGGTKLEIK heavy (part 6 of 7): EVQLVESGGGLVQPGGSLRLSCAASGIDLSSNAMSWVRQAPGKGLEWIGVITGRDITYYASWAKGRFTISRDNSKNTLYLQMNSLRAEDTAVYYCARDGGSSAINSKNIWGQGTLVTVSS heavy (part 7 of 7): DIQMTQSPSTLSASVGDRVTITCQASESISSWLAWYQQKPGKAPKLLIYEASKLASGVPSRFSGSGSGTEFTLTISSLQPDDFATYYCQGYFYFISRTYVNAFGGGTKVEIK light: AYDMTQSPSSVSASVGDRVTIKCQASEDIYSFLAWYQQKPGKAPKLLIHSASSLASGVPSRFSGSGSGTDFTLTISSLQPEDFATYYCQQGYGKNNVDNAFGGGTKVEIKRTVAAPSVFIFPPSDEQLKSGTASVVCLLNNFYPREAKVQWKVDNALQSGNSQESVTEQDSKDSTYSLSSTLTLSKADYEKHKVYACEVTHQGLSSPVTKSFNRGEC |
